T1: human IL-17B (R&D Systems, ref: 1248-IB/CF) (UniProt Q9UHF5 21-180)
T1 chain: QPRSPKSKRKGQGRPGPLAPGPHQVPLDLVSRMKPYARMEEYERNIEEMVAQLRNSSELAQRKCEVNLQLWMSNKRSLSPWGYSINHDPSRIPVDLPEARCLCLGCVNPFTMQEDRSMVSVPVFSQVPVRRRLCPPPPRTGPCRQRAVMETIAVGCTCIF

T2: human IL-17B (R&D Systems, ref: 1248-IB/CF) (human, UniProt Q9UHF5 21-180)
T2 construct: Bought recombinant protein; also called hIL-17B; interleukin 17B
T2 sequence: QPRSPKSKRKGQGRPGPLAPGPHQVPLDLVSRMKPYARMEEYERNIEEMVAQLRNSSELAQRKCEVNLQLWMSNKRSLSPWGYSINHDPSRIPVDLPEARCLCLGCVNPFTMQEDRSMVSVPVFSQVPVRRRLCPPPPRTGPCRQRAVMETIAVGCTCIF

B1: Antibody 13H5 (antibody, V domains shown)
VH: QVTLKESGPGILQPSQTLSLTCSFSGFSLSTFGMGVGWIRQPSGKGLEWLAHIWWDDDKYYNPALKSRLTISKDTSKNQVFLKIANVDTADTATYYCARMNDGYLYYWGQGTSVTVSS
VL: QIVLTQSPAIMSASPGEKVTMTCSASSSVSYMYWYQQKPGSSPRLLIYDTSNLASGVPVRFSGSGSGTSYSLTISRMEAEDAATYYCQQWSSYPFTFGSGTKLEIK
notes: Mouse monoclonal antibody directed against human IL-17B; also called mAb 13H5
B2: Antibody 12F9 (antibody, V domains shown)
VH: QVQLQQSGPELVKPGASVKISCKASGYTFTDYFINWVRQRPGQGLEWIGWIFPGSGSTYYHEKFKGKATLTVDKSSSTAYMLLSSLTSEDSAVYFCARTLYGNWYFDVWGTGTTVTVSS
VL: DVLMTQTPLSLPVSLGDQASISCRSSQSIVHSNGNTYLEWYLQKPGQSPKLLIYKVSNRFSGVPDRFSGSGSGTDFTLKISRVEAEDLGVYYCFQGSHVPYTFGGGTKLEIK
notes: Mouse monoclonal antibody directed against human IL-17B; also called mAb 12F9
B3: Antibody 21H6 (antibody, V domains shown)
VH: QVTLKESGPGILQPSQTLSLTCSFSGFSLSTFGMGVGWIRQPSGKGLEWLAHIWWDDDKYYNPALKGRLTISKDTSKNQVFLKIANVDTADTATYFCARIEDALDYWGQGTSVTVSS
VL: DIVMTQSPATLSVTPGDRVSLSCRASQNISDYLHWYQQKSHESPRLLIKYTSQSISGIPSRFSGSGSGSDFTLSINSVEPEDVGVYYCQNGHSFPFTFGSGTKLEIK
notes: Mouse monoclonal antibody directed against human IL-17B; also called mAb 21H6
B4: Antibody 18G9 (antibody, V domains shown)
VH: QITLKESGPGILKPSQTLSLTCSFSGFSLSTSGMGVGWIRQPSGKGLEWLAHIWWDDDKYYNPSLKSQLTISKDTSRNQVFLRITSVDTADTATYYCARRTQGYFDYWGQGTTLTVSS
VL: DILMTQSPASLAVSLGQRATISCKASQSVDYDGDSYMNWYQQKPGQPPKLLIYAASNLESGIPARFSGSGSGTDFTLNIHPVEEEDAATYYCQQSNEDPLTFGAGTKLELK
notes: Mouse monoclonal antibody directed against human IL-17B; also called mAb 18G9; 18G9a

Columns and labels:
[1] = molecular target: T1, human IL-17B (R&D Systems, ref: …); assay: ELISA
[2] = molecular target: T2, human IL-17B (R&D Systems, ref: …); assay: ELISA, human IL-17B coated on the plate, goat anti-mouse HRP detection
Experimental: Immediately coat a Maxisorp 96-well plate; [0250] […] Incubate 15 min at RT with 50 μl of ABTS substrate (Sigma-Aldrich, ref: A3219-100 ML) [0260] Measure DO (Optical Density) at 405 nm

EC50 [1]	binding result [2]	Binder
6.64 ng/mL	binds	B1
13.7 ng/mL	binds	B2
2.28 ng/mL	binds	B3
6.88 ng/mL	binds	B4
